In US20030224500A1, “Modified MEK1 and MEK2, crystal of a peptide: ligand: cofactor complex containing such modified MEK1 or MEK2, and methods of use thereof” (priority 2001, published 2003):

How the values were obtained:
[1] = system: glutathione-S-transferase fusion protein of kinase-inactive ERK1 (GSTERK1K71R); test: Kinase activity of the modified MEK1 peptides, GSTERK1K71R substrate, [γ-32P]ATP; assay type: biochemical; conditions: after Raf activation; 50 ng modified MEK peptide, 10 μM ATP, room temperature 20 minutes; initial experiments
Description: The modified MEK peptides (50 ng) were assayed in 20 mM HEPES (N-2-hydroxyethyl-piperazine-N′-2-ethanesulfonic acid) pH 7.5, 10 mM MgCl2, […] (ethylene glycol bis(2-aminoethyl ether)-N,N,N′N′-tetraacetic acid), 10 μM ATP, with 5 μCi [γ-^32P] ATP. Appropriate samples had 0.5 units of Raf-1 (UBI) added, and the reaction started with the addition of 1 μg GSTERK1 (K71R). The reactions were incubated at room temperature for 20 minutes, then quenched with 5 μl 6×Laemmli sample buffer. The samples were then resolved by SDS-PAGE, and the phosphoproteins visualized by autoradiography. Radiolabel incorporated into ERK was quantitated by excision of the protein band from the gel and counting in a standard scintillation counter. Initial experiments with the modified MEK1 s generated the following specific activities in units of pmol PO4 min-1 mg-1 after Raf activation: WT: 8380.6, WTsPR: 40.1, C1FL: 773.3, ClsPR: 35.9, C2FL: 537.5, C2sPR: 24.1, C3FL: 441.7 and C3sPR: 26.9.

[2] = system: colon carcinomas of both mouse and human origin; conditions: cited from earlier work
MAPK = conditions: correlated with efficacy; cited from earlier work
[3] = biological target: T1, glutathione-S-transferase fusion protein of kinase-inactive ERK1 (GSTERK1K71R), P27361
T1 chain: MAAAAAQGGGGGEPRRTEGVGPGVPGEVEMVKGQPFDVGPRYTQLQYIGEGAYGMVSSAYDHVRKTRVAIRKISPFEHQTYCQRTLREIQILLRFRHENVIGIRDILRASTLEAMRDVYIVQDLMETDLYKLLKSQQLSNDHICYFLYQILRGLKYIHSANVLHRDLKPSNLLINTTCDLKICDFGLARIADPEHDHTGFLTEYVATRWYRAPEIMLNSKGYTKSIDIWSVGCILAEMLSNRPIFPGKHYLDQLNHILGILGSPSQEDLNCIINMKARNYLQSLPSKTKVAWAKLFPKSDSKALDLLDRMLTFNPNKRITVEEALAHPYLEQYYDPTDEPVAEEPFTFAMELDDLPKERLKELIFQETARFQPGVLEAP

C2FL: NH2-terminally truncated MEK1 having peptide of amino acid residues 62 to 393 of SEQ ID NO: 2
specific activities [1]: 537.5 pmol PO4 min-1 mg-1

O=C(NOCC1CC1)c1ccc(F)c(F)c1Nc1ccc(I)cc1Cl [2-(2-chloro-4-iodo-phenylamino)-N-cyclopropylmethoxy-3,4-difluoro-benzamide]
tumor growth inhibited ([2]; mice with colon carcinomas of both mouse and human origin, after treatment with inhibitor): ≤ 80% | toxicity ([2]; wide range of doses, mice): no signs of toxicity | levels of MAPK in excised tumors (MAPK): reduction in levels of MAPK

WT: Wild-type human MEK1, full-length peptide of SEQ ID NO: 2, expressed in E. coli
specific activities [1]: 8380.6 pmol PO4 min-1 mg-1

C3FL: NH2-terminally truncated MEK1 having peptide of amino acid residues 42 to 393 of SEQ ID NO: 2
specific activities [1]: 441.7 pmol PO4 min-1 mg-1

C1FL: NH2-terminally truncated MEK1 encoding amino acids 51-393 of SEQ ID NO: 2
specific activities [1]: 773.3 pmol PO4 min-1 mg-1

B1: MEK1-C2 (d280-323) (protein)
chain: ELKDDDFEKISELGAGNGGVVFKVSHKPSGLVMARKLIHLEIKPAIRNQIIRELQVLHECNSPYIVGFYGAFYSDGEISICMEHMDGGSLDQVLKKAGRIPEQILGKVSIAVIKGLTYLREKHKIMHRDVKPSNILVNSRGEIKLCDFGVSGQLIDSMANSFVGTRSYMSPERLQGTHYSVQSDIWSMGLSLVEMAVGRYPIPPPDAKELELMFGCQVKLPSGVFSLEFQDFVNKCLIKNPAERADLKQLMVHAFIKRSDAEEVDFAGWLCSTIGLNQPSTPTHAAGV
specific activity after Raf activation (32P incorporated into ERK) [3]: C2sPR: 24.1 | specific activities [1]: 24.1 pmol PO4 min-1 mg-1

B2: MEK1-C3 (d280-323) (protein)
chain: LDEQQRKRLEAFLTQKQKVGELKDDDFEKISELGAGNGGVVFKVSHKPSGLVMARKLIHLEIKPAIRNQIIRELQVLHECNSPYIVGFYGAFYSDGEISICMEHMDGGSLDQVLKKAGRIPEQILGKVSIAVIKGLTYLREKHKIMHRDVKPSNILVNSRGEIKLCDFGVSGQLIDSMANSFVGTRSYMSPERLQGTHYSVQSDIWSMGLSLVEMAVGRYPIPPPDAKELELMFGCQVKLPSGVFSLEFQDFVNKCLIKNPAERADLKQLMVHAFIKRSDAEEVDFAGWLCSTIGLNQPSTPTHAAGV
specific activity after Raf activation (32P incorporated into ERK) [3]: C3sPR: 26.9 | specific activities [1]: 26.9 pmol PO4 min-1 mg-1

B3: MEK1 (wt)(d280-323) (protein)
chain: MPKKKPTPIQLNPAPDGSAVNGTSSAETNLEALQKKLEELELDEQQRKRLEAFLTQKQKVGELKDDDFEKISELGAGNGGVVFKVSHKPSGLVMARKLIHLEIKPAIRNQIIRELQVLHECNSPYIVGFYGAFYSDGEISICMEHMDGGSLDQVLKKAGRIPEQILGKVSIAVIKGLTYLREKHKIMHRDVKPSNILVNSRGEIKLCDFGVSGQLIDSMANSFVGTRSYMSPERLQGTHYSVQSDIWSMGLSLVEMAVGRYPIPPPDAKELELMFGCQVKLPSGVFSLEFQDFVNKCLIKNPAERADLKQLMVHAFIKRSDAEEVDFAGWLCSTIGLNQPSTPTHAAGV
specific activity after Raf activation (32P incorporated into ERK) [3]: WTsPR: 40.1 | specific activities [1]: 40.1 pmol PO4 min-1 mg-1

B4: MEK1-C1 (d280-323) (protein)
chain: EAFLTQKQKVGELKDDDFEKISELGAGNGGVVFKVSHKPSGLVMARKLIHLEIKPAIRNQIIRELQVLHECNSPYIVGFYGAFYSDGEISICMEHMDGGSLDQVLKKAGRIPEQILGKVSIAVIKGLTYLREKHKIMHRDVKPSNILVNSRGEIKLCDFGVSGQLIDSMANSFVGTRSYMSPERLQGTHYSVQSDIWSMGLSLVEMAVGRYPIPPPDAKELELMFGCQVKLPSGVFSLEFQDFVNKCLIKNPAERADLKQLMVHAFIKRSDAEEVDFAGWLCSTIGLNQPSTPTHAAGV
specific activity after Raf activation (32P incorporated into ERK) [3]: ClsPR: 35.9 | specific activities [1]: 35.9 pmol PO4 min-1 mg-1
